Series [1] can be described thus: Metabolic stability in human plasma by HPLC. The series is classed as in vitro ADME. Particulars: lyophilized human plasma 1 g in 10 ml water, 0.2 µm filtered; 8 mg probe in 2 ml plasma; 37 °C, 700 rpm; 5 min to 24 h; HPLC C18, absorbance 220 nm, blank subtracted. The method, then:
1 g of lyophilized human plasma was dissolved in 10 ml ultrapure water and mixed for 12 h at 4 °C. Afterward, the plasma was filtered with a pore size of 0.2 µm, and the filtrate was mixed for 1 h at 37 °C. 2 ml of plasma was mixed with 8 mg of the ADAMTS4-specific probe, while 2 ml plasma was kept blank. Both samples were shaken at 37 °C at 700 rpm. After different time points (5 min, 30 min, 45 min, 1 h, 2 h, […], 18 h, and 24 h) respectively, 200 µl of both samples were removed and 200 µl guanidium HCl (6 M, pH 3) was added to each sample and mixed for 30 min at RT. Afterward, 1 ml EtOH was added, and the samples were shaken at 4 °C for 48 h. The samples were centrifuged at 4 °C, 22640 x g for 15 min, and 1 ml of the supernatant was taken. The solvent was removed with the Speedvac (Martin Christ RVC 2-18 CDplus) at 37 °C. 250 µl ultrapure water + 0.2% TFA were added into each sample and shaken overnight. The samples were centrifuged at 4 °C, 22640 x g for 15 min, and 200 µl were transferred into MS vials. The samples were measured with an AdvanceBio Peptide Map column (C18; Core-shell; length 15 cm; ID 2.1 mm) on a 1260 Infinity Bioinert Quaternary LC System (Agilent Technologies). The following conditions were used: 2 µl injections volume, flowrate 0.4 ml/min, 0–30 min 99% A to 85% A (A: ultrapure water with 0.2% TFA; B ACN with 0.16% TFA). […]

The target of a further series is T1, ADAMTS1 (Homo sapiens, UniProt Q9UHI8).
T1 construct: His; purchased BioTeZ Berlin-Buch GmbH 30 400 402
T1 sequence (Q9UHI8 253-967): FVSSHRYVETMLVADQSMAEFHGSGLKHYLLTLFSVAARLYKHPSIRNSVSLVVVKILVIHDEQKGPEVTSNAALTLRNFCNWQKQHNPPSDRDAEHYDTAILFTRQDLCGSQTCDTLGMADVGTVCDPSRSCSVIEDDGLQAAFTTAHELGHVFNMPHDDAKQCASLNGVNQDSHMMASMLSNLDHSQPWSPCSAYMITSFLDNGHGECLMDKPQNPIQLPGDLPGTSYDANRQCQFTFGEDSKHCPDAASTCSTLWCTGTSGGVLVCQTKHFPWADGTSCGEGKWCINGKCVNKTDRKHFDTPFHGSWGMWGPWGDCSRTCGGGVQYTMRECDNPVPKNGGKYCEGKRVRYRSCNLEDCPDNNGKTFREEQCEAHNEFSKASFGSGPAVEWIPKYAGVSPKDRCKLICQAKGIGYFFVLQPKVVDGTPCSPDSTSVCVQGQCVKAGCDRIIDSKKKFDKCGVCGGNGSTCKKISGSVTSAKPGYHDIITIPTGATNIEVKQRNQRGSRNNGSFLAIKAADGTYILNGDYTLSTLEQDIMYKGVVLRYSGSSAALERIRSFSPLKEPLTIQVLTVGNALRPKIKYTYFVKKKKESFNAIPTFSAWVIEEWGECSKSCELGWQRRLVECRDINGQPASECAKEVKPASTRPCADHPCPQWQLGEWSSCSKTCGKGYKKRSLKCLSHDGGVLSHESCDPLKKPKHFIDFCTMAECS
Nature of the series: MST instrument, ligand-dependent fluorescence change, Cy5-labeled peptide vs ADAMTS1. The conditions noted are these: Cy5-labeled peptide 3 nM, ADAMTS1 starting concentration 4.88 µM, n = 3. The series is classed as binding. The method, then:
Microscale thermophoresis (MST) was performed on a Monolith Pico (NanoTemper, Munich, Germany). The Cy5-labeled peptides were diluted into the MST buffer (150 mM NaCl, 50 mM TRIS-HCl, 5 mM CaCl2, and Tween-20) to reach a dilution of 6 nM. ADAMTS4, ADAMTS5, and ADAMTS1 were directly used with the supplied concentration. For ADAMTS4, the starting concentration was 4.96 µM, while for ADAMTS1 it was 4.88 µM and for ADAMTS5 it was 2.46 µM. Since we saw a loss of binding after centrifugation, the use of protein concentrators were inappropriate. 20 µl of the protein solutions were transferred into a PCR tube. 10 µl of this first vial was transferred into a second vial and mixed by pipetting with 10 µl of the MST buffer. […] The capillaries were transferred into the Monolith tray and measured with 10% excitation power on the pico-red excitation on high MST power at 25 °C. […] We detected a ligand-dependent fluorescence change for some of the systems. We checked for ADAMTS4 and the ADAMTS4-specific-Cy5-labeled probe via a saturation test for specifying the ligand-dependent fluorescence change. […] The samples were heated at 95 °C for 5 min and measured in the MST. The fluorescence difference between the concentrations was afterward at the same level. Each measurement was repeated three times independently and the binding constant was calculated by merging all three measurements. […]

“Also recorded” adds a separate entry of the source. Where a SMILES comes first, the peptide text is derived from it. Bridges are numbered along the chain shown (N, C = ends). The star is where a group is joined. Cy5(nonsulfonated) = CN1C(=CC=CC=CC2=[N+](CCCCCC(=O)*)c3ccccc3C2(C)C)C(C)(C)c2ccccc21; DOTA = O=C(O)CN1CCN(CC(=O)O)CCN(CC(=O)*)CCN(CC(=O)O)CC1

For the compound `N=C(N)NCCC[C@@H]1NC(=O)[C@H](CCCNC(=N)N)NC(=O)[C@H](CO)NC(=O)[C@@H](N)CSSC[C@@H](C(=O)N[C@@H](CO)C(=O)NCC(=O)NCC(=O)N[C@@H](CO)C(=O)NCC(=O)NCC(=O)N[C@@H](CCCCNC(=O)CN2CCN(CC(=O)O)CCN(CC(=O)O)CCN(CC(=O)O)CC2)C(=O)NCC(N)=O)NC(=O)CNC1=O` (Gd complex, metal not drawn) [ADAMTS4-specific probe] (H-CSRRGCSGGSGGK(DOTA)G-NH2; disulfide 1-6), the “degradation in human plasma within 24 h” value in series [1] is on record as “No relevant degradation; also recorded: No relevant biodegradation”.
Regarding `C[N+]1=C(C=CC=CC=C2N(CCCCCC(=O)NCCCC[C@H](NC(=O)CNC(=O)CNC(=O)[C@H](CO)NC(=O)CNC(=O)CNC(=O)[C@H](CO)NC(=O)[C@@H]3CSSC[C@H](N)C(=O)N[C@@H](CO)C(=O)N[C@@H](CCCNC(=N)N)C(=O)N[C@@H](CCCNC(=N)N)C(=O)NCC(=O)N3)C(=O)NCC(N)=O)c3ccccc3C2(C)C)C(C)(C)c2ccccc21` [Cy5-labeled probe] (H-CSRRGCSGGSGGK(Cy5(nonsulfonated))G-NH2; disulfide 1-6; N-terminus and C-terminus assumed), the “binding to ADAMTS1, in words” value on ADAMTS1 was “determination of the binding constant is not possible; also recorded: plateau was not reached; also recorded: a ligand dependent fluorescence change occurs”.

Source of the values: publication PMC9126943, “ADAMTS4-specific MR probe to assess aortic aneurysms in vivo using synthetic peptide libraries” (Nature Communications, 2022).
